Km and kcat/Km data for two proteins are collected here from PMC4801511.

Substrate in the series: Cc1cc(=O)oc2c(F)c(OP(=O)(O)O)c(F)cc12
The experiment in a line: DiFMUP fluorescence phosphatase assay, Michaelis-Menten fit. To be noted: 20 mM tris-acetate pH 6.0, 150 mM NaCl, BSA 0.1 mg/ml. Format: biochemical, Homo sapiens.

B1: RPAP2_32–345 (Homo sapiens) (protein)
chain: LKQEDASKRKAELEAAVRKKIEFERKALHIVEQLLEENITEEFLMECGRFITPAHYSDVVDERSIVKLCGYPLCQKKLGIVPKQKYKISTKTNKVYDITERKSFCSNFCYQASKFFEAQIPKTPVWVREEERHPDFQLLKEEQSGHSGEEVQLCSKAIKTSDIDNPSHFEKQYESSSSSTHSDSSSDNEQDFVSSILPGNRPNSTNIRPQLHQKSIMKKKAGHKANSKHKDKEQTVVDVTEQLGDCKLDSQEKDATCELPLQKVNTQSSSNSTLPERLKASENSESEYSRSEITLVGISKKSAEHFKRKFAKSN
With B1, the Km is 34.20 ± 0.84 µM and the kcat/Km turned out to be 333000 M⁻¹ s⁻¹.

B2: RPAP2_32–274 (Homo sapiens) (protein)
chain: LKQEDASKRKAELEAAVRKKIEFERKALHIVEQLLEENITEEFLMECGRFITPAHYSDVVDERSIVKLCGYPLCQKKLGIVPKQKYKISTKTNKVYDITERKSFCSNFCYQASKFFEAQIPKTPVWVREEERHPDFQLLKEEQSGHSGEEVQLCSKAIKTSDIDNPSHFEKQYESSSSSTHSDSSSDNEQDFVSSILPGNRPNSTNIRPQLHQKSIMKKKAGHKANSKHKDKEQTVVDVTEQL
In the case of B2, the Km was determined as 30.95 ± 1.75 µM and the kcat/Km was determined as 833000 M⁻¹ s⁻¹.

The term Km denotes the substrate concentration at which the rate is half of its maximum. What is called kcat/Km is the turnover number divided by the Michaelis constant.
